Reference: patent US20160129077A1, “Use of recombinant ganoderma immunoregulatory protein (rLZ-8) in preparation of drug for treating melanoma” (priority 2013, published 2016)
Where two headings read alike, the source gives them in different places. Marks after values point to notes of the source that are not given here.

Assays:
[1] = Toxicity test of rLZ-8 on SD rats; assay type: in vivo; design: Weight gains, male / Weight gains, female / BUN (blood urea nitrogen) / CHE (cholinesterase) / CRE (creatinine) / TBA (total bile acid) / UA (uric acid) / ALT (alanine aminotransferase) / AST (aspartate aminotransferase): unit not given here; settings: for Weight gains, female: female SD rats; for Weight gains, female / Weight gains, male: 46 days; for Weight gains, male: male SD rats
Description: The administration dosages for the rats were calculated based on the administration dosage for the mice; the rats were divided into a contrast group (physiological saline), a low dosage group (15 μl/kg weight), a medium dosage group (30 μl/kg weight) and a high dosage group (60 μl/kg weight). The administration manner was an intraperitoneal injection.
Feeding amount, weight; serology: liver function and kidney function; immunity: thymus index and spleen index; serum complements IgM, IgG, C3 and C4; pathology examination: heart, liver, spleen, lung, kidney, pancreas, thymus, gonad etc.

B16F10 orthotopic tumor = settings: for Mortality rate (administration for 28 days) / Mortality rate (administration for 56 days): dead mice/animal number
Description: The mice were transplanted with a melanoma cells line B16-F10.
The mice melanoma cells B16-F10 were cultured in the DMEM containing 10% fetal bovine serum, at 37° C. in the CO2 thermostat incubator. 200 μl of B16-F10 cell suspension (containing 1×10^7 cells) was slowly subcutaneously injected into a dorsal-ventral side of the mouse through 1 ml syringe, so as to establish a model of mice transplanted with tumors. […] The rLZ-8 was injected once per day; the DTIC was continuously tail-intravenously injected for 5 days and injected for a second time after 3 weeks. During the experiment, living states of the mice were observed; the mice were weighed once every 7 days; blood samples were taken from tail veins of the mice every 2 weeks; volumes of the tumors, subcutaneously injected into the mice, were measured every 2 days; for each group, the tumors were dissected at an end of the experiment and weighed on the balance, with weights recorded. According to a formula that a tumor growth inhibition rate=(an average weight of the tumors of the physiological saline group−an average weight of the tumors of the drug administrated groups)/the average weight of the tumors of the physiological saline group, the inhibition rate of the rLZ-8 upon the growth of the orthotopic tumor was calculated.

[2] = system: human gastric cancer cells (SGC-7901); settings: cited from earlier work
[3] = system: human lung carcinoma cells (A549); settings: cited from earlier work
B16-F10 lung metastases = test: B16-F10 melanoma lung metastasis model (tail vein injection) in Kunming mice; assay type: in vivo; settings: for Survival rate when all mice of the negative contrast group were dead: 87th / 95th day after injecting the tumors
Description: DMEM, fetal bovine serum, PBS, trypsin-EDTA, DMSO, Tris-HCl buffer with pH 7.6 for rinsing, 0.05% trypsin, rLZ-8, and DTIC.
After the mice were put to death, lungs of the dead mice were dissected out and the number of black spots on surfaces of the lungs, formed by an aggregation of metastasis cell, was counted, so as to calculate the inhibition rate of the drug against the growth of the lung metastasis as: inhibition rate=(an average metastasis number of the negative contrast group−an average metastasis number of the drug administrated group)/the average metastasis number of the negative contrast group×100%. A time and the number of the dead mouse in each experiment group were recorded in detail, especially during administrating the drug continuously, until the negative contrast group was completely dead; and then, the survival states of the mice in the experiment groups and the contrast groups were analyzed. A survival rate was calculated according to the number of the dead mice in the other groups when all the mice of the negative contrast group were dead, based on a formula that survival rate=(a total number of the mice−the number of the dead mice)/the total number of the mice.

[4] = system: IFN-γ secreting expression; test: Neutralization activity of anti-rLZ-8 antibody by biological activity method (IFN-γ secreting expression stimulated by rLZ-8); assay type: cell-based
Description: As a fungal recombinant genetic engineering drug, it is crucial to track generation of antibody of the rLZ-8 for a preclinical evaluation. Blood serum of normal monkeys, Macaca fascicularis, after being continuously administrated, was selected for testing antibody of the rLZ-8 by ELISA and for testing a neutralization activity of anti-rLZ-8 antibody by a biological activity method.
On the 9th-11th days of administrating the drug, three monkeys were tested to have low titer (1:5) of the anti-rLZ-8 antibody; after the 28th day of administrating, the titer of the antibody maintained low, within a range of 1:25 to 1:125. No anti-rLZ-8 antibody was tested from the monkeys of the contrast group. […] Therefore, the inhibition effect of the monkey blood serum was not the property of the competitive neutralizing antibody.

[5] = high dosage 60 μl/kg weight i.p.
[6] = low dosage 15 μl/kg weight i.p.
[7] = medium dosage 30 μl/kg weight i.p.
[8] = medium dosage 246 μg/kg, 28 days
[9] = medium dosage 246 μg/kg, 56 days
[10] = culture medium with anti-rLZ-8 antibody positive (1:125) monkey blood serum diluted 10 times

B1: rLZ-8: recombinant ganoderma immunoregulatory protein (LZ-8), fungal immunoregulatory protein obtained by gene engineering (protein, UniProt P14945 2-111, looked up)
Immunomodulatory protein Ling …: SDTALIFRLAWDVKKLSFDYTPNWGRGNPNNFIDTVTFPKVLTDKAYTYRVAVSGRNLGVKPSYAVESDGSQKVNFLEYNSGYGIADTNTIQVFVVDPDTNNDFIIAQWN
- Impact on liver function and kidney function ([1]; SD rats, all dosage groups): no obvious adverse impact on the liver function and the kidney function
- Pathology examination of tested organs ([1]; compared with the organs of the contrast group): no obvious morphological change
- Weight gains, female [1, 5]: 133.37 ± 15.29
- Weight gains, female [1, 6]: 140.00 ± 23.48
- Weight gains, female [1, 7]: 124.08 ± 14.17
- ALB (albumin) [1, 5]: 34.77 ± 1.44
- ALP (alkaline phosphatase) [1, 5]: 218.50 ± 69.98
- ALT (alanine aminotransferase) [1, 5]: 30.75 ± 2.42
- AST (aspartate aminotransferase) [1, 5]: 128.58 ± 18.74
- BUN (blood urea nitrogen) [1, 5]: 7.24 ± 0.89
- C3 [1, 5]: 0.428 ± 0.082 g/L
- C4 [1, 5]: 0.352 ± 0.016 g/L
- CHE (cholinesterase) [1, 5]: 456.17 ± 309.59
- CRE (creatinine) [1, 5]: 24.22 ± 2.55
- IgG [1, 5]: 0.124 ± 0.081 g/L
- IgM [1, 5]: 0.236 ± 0.076 g/L
- Spleen index (spleen weight/weight × 100) [1, 5]: 0.19 ± 0.02
- TBA (total bile acid) [1, 5]: 37.30 ± 17.63
- TP (total protein) [1, 5]: 63.23 ± 2.88
- Thymus index (thymus weight/weight × 100) [1, 5]: 0.17 ± 0.03
- UA (uric acid) [1, 5]: 164.50 ± 28.94
- ALB (albumin) [1, 6]: 37.54 ± 1.62
- ALP (alkaline phosphatase) [1, 6]: 243.50 ± 103.54
- ALT (alanine aminotransferase) [1, 6]: 35.50 ± 4.93
- AST (aspartate aminotransferase) [1, 6]: 175.00 ± 34.96
- BUN (blood urea nitrogen) [1, 6]: 7.54 ± 0.47
- C3 [1, 6]: 0.449 ± 0.097 g/L
- C4 [1, 6]: 0.397 ± 0.021 g/L
- CHE (cholinesterase) [1, 6]: 474.17 ± 305.10
- CRE (creatinine) [1, 6]: 24.97 ± 1.89
- IgG [1, 6]: 0.146 ± 0.021 g/L
- IgM [1, 6]: 0.220 ± 0.080 g/L
- Spleen index (spleen weight/weight × 100) [1, 6]: 0.19 ± 0.03
- TBA (total bile acid) [1, 6]: 30.13 ± 16.29
- TP (total protein) [1, 6]: 67.58 ± 3.34
- Thymus index (thymus weight/weight × 100) [1, 6]: 0.15 ± 0.03
- UA (uric acid) [1, 6]: 174.42 ± 46.65
- Weight gains, male [1, 5]: 221.92 ± 21.84
- Weight gains, male [1, 6]: 215.25 ± 17.82
- Weight gains, male [1, 7]: 218.67 ± 10.89
- ALB (albumin) [1, 7]: 36.57 ± 2.20
- ALP (alkaline phosphatase) [1, 7]: 242.83 ± 80.94
- ALT (alanine aminotransferase) [1, 7]: 34.42 ± 4.50
- AST (aspartate aminotransferase) [1, 7]: 169.08 ± 30.83
- BUN (blood urea nitrogen) [1, 7]: 7.36 ± 0.97
- C3 [1, 7]: 0.457 ± 0.088 g/L
- C4 [1, 7]: 0.412 ± 0.017 g/L
- CHE (cholinesterase) [1, 7]: 487.17 ± 303.02
- CRE (creatinine) [1, 7]: 24.26 ± 3.55
- IgG [1, 7]: 0.121 ± 0.021 g/L
- IgM [1, 7]: 0.228 ± 0.084 g/L
- Spleen index (spleen weight/weight × 100) [1, 7]: 0.18 ± 0.02
- TBA (total bile acid) [1, 7]: 38.25 ± 18.15
- TP (total protein) [1, 7]: 66.58 ± 4.77
- Thymus index (thymus weight/weight × 100) [1, 7]: 0.12 ± 0.02
- UA (uric acid) [1, 7]: 186.83 ± 45.67
- Increase of tumor inhibition rate between administration for 28 days and for 56 days (B16F10 orthotopic tumor; each rLZ-8 dosage group): around 15%
- Tumor weight (B16F10 orthotopic tumor; high dosage 492 μg/kg tail i.v. once per day, 28 days): 0.14 ± 0.04 g
- Tumor growth inhibition rate (B16F10 orthotopic tumor; high dosage 492 μg/kg, 28 days): 88.49 ± 0.51 %
- Tumor volume (B16F10 orthotopic tumor; high dosage 492 μg/kg, 28 days): 0.11 ± 0.03** mm^3
- Tumor growth inhibition rate (B16F10 orthotopic tumor; high dosage 492 μg/kg, 56 days): 95.66±1.77%
- Tumor volume (B16F10 orthotopic tumor; high dosage 492 μg/kg, 56 days): 0.13 ± 0.09**^## mm^3
- Tumor weight (B16F10 orthotopic tumor; high dosage 492 μg/kg, 56 days): 0.15 ± 0.07 g
- Mortality rate (administration for 28 days) (B16F10 orthotopic tumor; high dosage 492 μg/kg): 0/10
- Mortality rate (administration for 56 days) (B16F10 orthotopic tumor; high dosage 492 μg/kg): 0/10
- Tumor weight (B16F10 orthotopic tumor; low dosage 123 μg/kg tail i.v. once per day, 28 days): 0.6 ± 0.21 g
- Tumor growth inhibition rate (B16F10 orthotopic tumor; low dosage 123 μg/kg, 28 days): 51.81 ± 0.41 %
- Tumor volume (B16F10 orthotopic tumor; low dosage 123 μg/kg, 28 days): 0.5 ± 0.14**^## mm^3
- Tumor growth inhibition rate (B16F10 orthotopic tumor; low dosage 123 μg/kg, 56 days): 76.76 ± 0.53 %
- Tumor volume (B16F10 orthotopic tumor; low dosage 123 μg/kg, 56 days): 0.65 ± 0.24**^# mm^3
- Tumor weight (B16F10 orthotopic tumor; low dosage 123 μg/kg, 56 days): 0.79 ± 0.31**^ g
- Mortality rate (administration for 28 days) (B16F10 orthotopic tumor; low dosage 123 μg/kg): 0/10
- Mortality rate (administration for 56 days) (B16F10 orthotopic tumor; low dosage 123 μg/kg): 0/10
- Tumor weight (B16F10 orthotopic tumor; medium dosage 246 μg/kg tail i.v. once per day, 28 days): 0.43 ± 0.17 g
- Tumor growth inhibition rate (B16F10 orthotopic tumor; [8]): 65.00 ± 0.77 %
- Tumor volume (B16F10 orthotopic tumor; [8]): 0.36 ± 0.14**^## mm^3
- Tumor growth inhibition rate (B16F10 orthotopic tumor; [9]): 80.10 ± 1.01 %
- Tumor volume (B16F10 orthotopic tumor; [9]): 0.56 ± 0.18**^## mm^3
- Tumor weight (B16F10 orthotopic tumor; [9]): 0.68 ± 0.19 g
- Mortality rate (administration for 28 days) (B16F10 orthotopic tumor; medium dosage 246 μg/kg): 0/10
- Mortality rate (administration for 56 days) (B16F10 orthotopic tumor; medium dosage 246 μg/kg): 0/10
- Body leukocyte number (B16F10 orthotopic tumor; tumor-bearing mice, tail vein blood, anti-tumor treatment experiment (28/56 days)): small impact on the body leukocyte number
- Killing of cells in vitro [2]: effectively kills
- Killing of cells in vitro [3]: effectively kills
- Survival rate when all mice of the negative contrast group were dead (B16-F10 lung metastases; high dosage 492 μg/kg): 10%
- Tumor metastases inhibition rate (B16-F10 lung metastases; high dosage 492 μg/kg, 28 days): 71.17±2.43%
- Tumor metastases inhibition rate (B16-F10 lung metastases; high dosage 492 μg/kg, 56 days): 89.78 ± 2.77 %
- Survival rate when all mice of the negative contrast group were dead (B16-F10 lung metastases; low dosage 123 μg/kg): 25%
- Tumor metastases inhibition rate (B16-F10 lung metastases; low dosage 123 μg/kg, 28 days): 62.13±1.88%
- Tumor metastases inhibition rate (B16-F10 lung metastases; low dosage 123 μg/kg, 56 days): 66.18 ± 1.79 %
- Survival rate when all mice of the negative contrast group were dead (B16-F10 lung metastases; medium dosage 246 μg/kg): 30%
- Tumor metastases inhibition rate (B16-F10 lung metastases; [9]): 84.31 ± 3.12 %
- Maximum expression value (Emax) of value A [4, 10]: 0.78±0.09
- Slope of the curve [4, 10]: 0.77±0.20
- Generation of neutralizing antibody ([4]; monkeys, continuous administration): does not generate the neutralizing antibody
- Half maximal inhibitory concentration IC50 ([4]; with antibody positive monkey blood serum versus without): increased
